Numbered stars: 1 amine (or outer) side, 2 acyl side, 3 side chain; on linkers, the order of the positions; unused ones are H or OH. Bridge positions count the residues as written; N and C are the ends. Side chains are listed from the residue outwards. Ends that are not written are not given here. * marks the point of attachment. C20 diacid = O=C(O)CCCCCCCCCCCCCCCCCCC(=O)*; γGlu = O=C(O)[C@H](CCC(=O)[*:2])N[*:1]; AEEA = NCCOCCOCC(=O)O
T1: human calcitonin receptor (human, UniProt P30988 25-474)
T1 construct: whole, on cells; Membranes prepared from a stably transfected BHK cell line (Assay VII); also called hCTR; hCT
T1 sequence (looked up): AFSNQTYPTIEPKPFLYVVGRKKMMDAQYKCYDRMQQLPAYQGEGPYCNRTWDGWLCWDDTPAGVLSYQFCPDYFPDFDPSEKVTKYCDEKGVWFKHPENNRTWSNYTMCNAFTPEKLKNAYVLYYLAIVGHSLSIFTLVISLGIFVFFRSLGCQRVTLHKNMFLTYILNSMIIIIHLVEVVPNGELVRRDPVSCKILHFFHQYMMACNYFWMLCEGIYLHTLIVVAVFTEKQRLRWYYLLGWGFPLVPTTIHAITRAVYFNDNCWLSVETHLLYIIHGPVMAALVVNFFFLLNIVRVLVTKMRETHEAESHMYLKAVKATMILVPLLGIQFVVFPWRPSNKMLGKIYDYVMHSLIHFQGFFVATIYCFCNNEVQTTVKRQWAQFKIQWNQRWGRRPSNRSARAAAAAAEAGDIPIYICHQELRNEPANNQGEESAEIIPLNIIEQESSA

T2: rat calcitonin receptor (rat, UniProt P32214 25-516)
T2 construct: whole, on cells; Membranes prepared from transiently transfected BHK tk'ts 13 cells (Assay VIII); also called rCTR; rCT
T2 sequence (looked up): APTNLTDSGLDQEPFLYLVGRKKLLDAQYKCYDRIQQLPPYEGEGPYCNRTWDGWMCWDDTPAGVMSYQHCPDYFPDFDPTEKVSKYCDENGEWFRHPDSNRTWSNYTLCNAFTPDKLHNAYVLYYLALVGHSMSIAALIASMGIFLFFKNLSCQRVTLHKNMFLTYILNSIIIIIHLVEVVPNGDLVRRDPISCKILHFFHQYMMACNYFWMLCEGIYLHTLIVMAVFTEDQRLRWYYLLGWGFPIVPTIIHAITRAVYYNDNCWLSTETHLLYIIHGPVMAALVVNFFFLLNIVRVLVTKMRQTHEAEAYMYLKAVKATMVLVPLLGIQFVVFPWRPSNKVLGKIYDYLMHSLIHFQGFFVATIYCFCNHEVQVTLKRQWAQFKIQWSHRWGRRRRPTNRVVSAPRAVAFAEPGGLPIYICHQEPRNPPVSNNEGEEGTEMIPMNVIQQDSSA

T3: rat amylin receptor (rat calcitonin receptor + rat RAMP 3) (rat, UniProt P32214 25-516; Q9JJ73 23-147)
T3 construct: whole, on cells; Membranes prepared from transiently transfected BHK tk'ts 13 cells (Assay VI); also called rAmylin-R; rAmylin
T3 sequence (looked up) 1: T2 sequence (looked up)
T3 sequence (looked up) 2: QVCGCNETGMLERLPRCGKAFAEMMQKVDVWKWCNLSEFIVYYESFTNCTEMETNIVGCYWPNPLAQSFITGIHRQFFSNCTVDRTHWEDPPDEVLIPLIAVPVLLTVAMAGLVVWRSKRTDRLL

B1: N^ε1-[2-[2-[2-(19-carboxynonadecanoylamino)ethoxy]ethoxy]acetyl]-[Arg17,Pro21,Pro27,His34]-h-amylin (peptide)
peptide: K([AEEA-C20 diacid])CNTATCATQRLANFLRHSSPNFGAIPSSTNVGHNTY-NH2
modifications: disulfide 2-7; N-terminus assumed
SMILES: CC[C@H](C)[C@H](NC(=O)[C@H](C)NC(=O)CNC(=O)[C@H](Cc1ccccc1)NC(=O)[C@H](CC(N)=O)NC(=O)[C@@H]1CCCN1C(=O)[C@H](CO)NC(=O)[C@H](CO)NC(=O)[C@H](Cc1c[nH]cn1)NC(=O)[C@H](CCCNC(=N)N)NC(=O)[C@H](CC(C)C)NC(=O)[C@H](Cc1ccccc1)NC(=O)[C@H](CC(N)=O)NC(=O)[C@H](C)NC(=O)[C@H](CC(C)C)NC(=O)[C@H](CCCNC(=N)N)NC(=O)[C@H](CCC(N)=O)NC(=O)[C@@H](NC(=O)[C@H](C)NC(=O)[C@@H]1CSSC[C@H](NC(=O)[C@@H](N)CCCCNC(=O)COCCOCCNC(=O)CCCCCCCCCCCCCCCCCCC(=O)O)C(=O)N[C@@H](CC(N)=O)C(=O)N[C@@H]([C@@H](C)O)C(=O)N[C@@H](C)C(=O)N[C@@H]([C@@H](C)O)C(=O)N1)[C@@H](C)O)C(=O)N1CCC[C@H]1C(=O)N[C@@H](CO)C(=O)N[C@@H](CO)C(=O)N[C@H](C(=O)N[C@@H](CC(N)=O)C(=O)N[C@H](C(=O)NCC(=O)N[C@@H](Cc1c[nH]cn1)C(=O)N[C@@H](CC(N)=O)C(=O)N[C@H](C(=O)N[C@@H](Cc1ccc(O)cc1)C(N)=O)[C@@H](C)O)C(C)C)[C@@H](C)O
notes: Analogue of human amylin; also called compound 91
B2: N^ε1-[2-[2-[2-[[(4S)-4-carboxy-4-(19-carboxynonadecanoylamino)butanoyl]amino]ethoxy]ethoxy]acetyl]-[Ala14,Arg17,Pro21,Pro27,Pro31]-h-amylin (peptide)
peptide: K([AEEA-γGlu-C20 diacid])CNTATCATQRLAAFLRHSSPNFGAIPSSTPVGSNTY-NH2
modifications: disulfide 2-7; N-terminus assumed
SMILES: CC[C@H](C)[C@H](NC(=O)[C@H](C)NC(=O)CNC(=O)[C@H](Cc1ccccc1)NC(=O)[C@H](CC(N)=O)NC(=O)[C@@H]1CCCN1C(=O)[C@H](CO)NC(=O)[C@H](CO)NC(=O)[C@H](Cc1c[nH]cn1)NC(=O)[C@H](CCCNC(=N)N)NC(=O)[C@H](CC(C)C)NC(=O)[C@H](Cc1ccccc1)NC(=O)[C@H](C)NC(=O)[C@H](C)NC(=O)[C@H](CC(C)C)NC(=O)[C@H](CCCNC(=N)N)NC(=O)[C@H](CCC(N)=O)NC(=O)[C@@H](NC(=O)[C@H](C)NC(=O)[C@@H]1CSSC[C@H](NC(=O)[C@@H](N)CCCCNC(=O)COCCOCCNC(=O)CC[C@H](NC(=O)CCCCCCCCCCCCCCCCCCC(=O)O)C(=O)O)C(=O)N[C@@H](CC(N)=O)C(=O)N[C@@H]([C@@H](C)O)C(=O)N[C@@H](C)C(=O)N[C@@H]([C@@H](C)O)C(=O)N1)[C@@H](C)O)C(=O)N1CCC[C@H]1C(=O)N[C@@H](CO)C(=O)N[C@@H](CO)C(=O)N[C@H](C(=O)N1CCC[C@H]1C(=O)N[C@H](C(=O)NCC(=O)N[C@@H](CO)C(=O)N[C@@H](CC(N)=O)C(=O)N[C@H](C(=O)N[C@@H](Cc1ccc(O)cc1)C(N)=O)[C@@H](C)O)C(C)C)[C@@H](C)O
notes: Analogue of human amylin; also called compound 72
B3: N^ε1-[2-[2-[2-[[(4S)-4-carboxy-4-(19-carboxynonadecanoylamino)butanoyl]amino]ethoxy]ethoxy]acetyl]-[Arg14,Arg17,Pro21,Pro27,Pro31]-h-amylin (peptide)
peptide: K([AEEA-γGlu-C20 diacid])CNTATCATQRLARFLRHSSPNFGAIPSSTPVGSNTY-NH2
modifications: disulfide 2-7; N-terminus assumed
SMILES: CC[C@H](C)[C@H](NC(=O)[C@H](C)NC(=O)CNC(=O)[C@H](Cc1ccccc1)NC(=O)[C@H](CC(N)=O)NC(=O)[C@@H]1CCCN1C(=O)[C@H](CO)NC(=O)[C@H](CO)NC(=O)[C@H](Cc1c[nH]cn1)NC(=O)[C@H](CCCNC(=N)N)NC(=O)[C@H](CC(C)C)NC(=O)[C@H](Cc1ccccc1)NC(=O)[C@H](CCCNC(=N)N)NC(=O)[C@H](C)NC(=O)[C@H](CC(C)C)NC(=O)[C@H](CCCNC(=N)N)NC(=O)[C@H](CCC(N)=O)NC(=O)[C@@H](NC(=O)[C@H](C)NC(=O)[C@@H]1CSSC[C@H](NC(=O)[C@@H](N)CCCCNC(=O)COCCOCCNC(=O)CC[C@H](NC(=O)CCCCCCCCCCCCCCCCCCC(=O)O)C(=O)O)C(=O)N[C@@H](CC(N)=O)C(=O)N[C@@H]([C@@H](C)O)C(=O)N[C@@H](C)C(=O)N[C@@H]([C@@H](C)O)C(=O)N1)[C@@H](C)O)C(=O)N1CCC[C@H]1C(=O)N[C@@H](CO)C(=O)N[C@@H](CO)C(=O)N[C@H](C(=O)N1CCC[C@H]1C(=O)N[C@H](C(=O)NCC(=O)N[C@@H](CO)C(=O)N[C@@H](CC(N)=O)C(=O)N[C@H](C(=O)N[C@@H](Cc1ccc(O)cc1)C(N)=O)[C@@H](C)O)C(C)C)[C@@H](C)O
notes: Analogue of human amylin; also called compound 64

molecular target: T1, human calcitonin receptor; experiment: ratio of binding IC50s: human calcitonin receptor / human amylin receptor (reference)
Protocol: The resulting pellet was resuspended, homogenized and centrifuged (20.000 rpm, 15 min) in a buffer containing 20 mM Na-HEPES and 0.1 mM EDTA (pH 7.4, buffer 2). The resulting pellet was resuspended in buffer 2 and protein concentration was measured (BCA protein Assay, Pierce). The homogenate was kept cold during the whole procedure. The membranes were kept at −80° C. until use. The assay was performed in a 384 well Optiplate (PerkinElmer) in a total volume of 40 ul. Membranes were mixed with SPA beads. Final concentration of membranes 35 ng/μL final and SPA beads was 0.05 mg/well. Test-compounds were dissolved in DMSO and further diluted in assay buffer (50 mM Hepes, pH 7.4, 1 mM CaCl2, 5 mM MgCl₂, 0.1% OA and 0.02% Tween20). […] The final mixture was incubated with shaking at 400 rpm for 120 min at 25° C. prior to centrifugation (1500 rpm, 10 min). Samples were analyzed on TopCounter™ (Packard). The IC₅₀ was calculated using (one site binding competition analysis) GraphPad Prism5 as a measure of receptor affinity.
Membranes were prepared in the following way; the cells were rinsed with PBS and incubated with Versene for approximately 5 min before harvesting. The cells were flushed with PBS and the cell-suspension was centrifuged for 5 min at 1000 rpm. Cells were homogenized (Ultrathurrax) in a buffer containing 20 mM Na-HEPES and 10 mM EDTA (pH 7.4) and centrifuged at 20.000 rpm for 15 min. The resulting pellet was resuspended, homogenized and centrifuged (20.000 rpm, 15 min) in a buffer containing 20 mM Na-HEPES and 0.1 mM EDTA (pH 7.4, buffer 2). The resulting pellet was resuspended in buffer 2 and protein concentration was measured (BCA protein Assay, Pierce). The homogenate was kept cold during the whole procedure. The membranes were kept at −80° C. until use. Assay was performed in a 384 well Optiplate (PerkinElmer) in a total volume of 40 ul. Membranes were mixed with SPA beads.

Ratio hCT/hAmylin binding	Binder
101	B1
247	B2
126	B3

molecular target: T2, rat calcitonin receptor; experiment: SPA competition vs 125I-calcitonin, membranes of BHK cells with rat calcitonin receptor (Assay VIII)

IC50	Binder
29.4 nM	B1
221 nM	B2
128 nM	B3

molecular target: T3, rat amylin receptor (rat calcitonin …); experiment: SPA competition vs 125I-rat amylin, membranes of BHK cells with rat calcitonin receptor + rat RAMP3 (Assay VI)
Protocol: The binding assay was performed using scintillation proximity assay (SPA) beads (RPNQ0001) from PerkinElmer and cell membranes from the Amylin 3(a)/CRE-luc cells (as described in Assay (II)) were used. Membranes were prepared in the following way; the cells were rinsed with PBS and incubated with Versene for approximately 5 min before harvesting. The cells were flushed with PBS and the cell-suspension was centrifuged for 5 min at 1000 rpm. Cells were homogenized (ultrathurrax) in a buffer containing 20 mM Na-HEPES and 10 mM EDTA (pH 7.4) and centrifuged at 20.000 rpm for 15 min. The resulting pellet was resuspended, homogenized and centrifuged (20.000 rpm, 15 min) in a buffer containing 20 mM Na-HEPES and 0.1 mM EDTA (pH 7.4, buffer 2). The resulting pellet was resuspended in buffer 2 and protein concentration was measured (BCA protein Assay, Pierce). The homogenate was kept cold during the whole procedure. The membranes were kept at −80° C. until use. The assay was performed in a 384 well Optiplate (PerkinElmer) in a total volume of 40 ul. Membranes were mixed with SPA beads. Final concentration of membranes 35 ng/μL final and SPA beads was 0.05 mg/well. Test-compounds were dissolved in DMSO and further diluted in assay buffer (50 mM Hepes, pH 7.4, 1 mM CaCl2, 5 mM MgCl₂, 0.1% OA and 0.02% Tween20). […] The final mixture was incubated with shaking at 400 rpm for 120 min at 25° C. prior to centrifugation (1500 rpm, 10 min). Samples were analyzed on TopCounter™ (Packard). The IC₅₀ was calculated using (one site binding competition analysis) GraphPad Prism5 as a measure of receptor affinity.
Cells were grown in DMEM with 10% FBS and 1% Pen/Strep. Approximately 48 hours after transfection, the cells were harvested and membranes were prepared.

IC50	Binder
0.386 nM	B1
0.851 nM	B2
1.97 nM	B3

molecular target: T2, rat calcitonin receptor; experiment: ratio of binding IC50s: rat calcitonin receptor / rat amylin receptor (reference)

Ratio rCT/rAmylin binding	Binder
76.3	B1
259	B2
64.7	B3
